Literature values, collected in paper PMC11442857.

Biological target: Bovine serum albumin, fatty-acid-free (FAF-BSA) (UniProt P02769)
Assay: Analytical ultracentrifugation, sedimentation equilibrium
Conditions: pH 7.2, 10 °C, PBS (concentration not stated)

Chain of UniProt P02769 (P02769 whole entry): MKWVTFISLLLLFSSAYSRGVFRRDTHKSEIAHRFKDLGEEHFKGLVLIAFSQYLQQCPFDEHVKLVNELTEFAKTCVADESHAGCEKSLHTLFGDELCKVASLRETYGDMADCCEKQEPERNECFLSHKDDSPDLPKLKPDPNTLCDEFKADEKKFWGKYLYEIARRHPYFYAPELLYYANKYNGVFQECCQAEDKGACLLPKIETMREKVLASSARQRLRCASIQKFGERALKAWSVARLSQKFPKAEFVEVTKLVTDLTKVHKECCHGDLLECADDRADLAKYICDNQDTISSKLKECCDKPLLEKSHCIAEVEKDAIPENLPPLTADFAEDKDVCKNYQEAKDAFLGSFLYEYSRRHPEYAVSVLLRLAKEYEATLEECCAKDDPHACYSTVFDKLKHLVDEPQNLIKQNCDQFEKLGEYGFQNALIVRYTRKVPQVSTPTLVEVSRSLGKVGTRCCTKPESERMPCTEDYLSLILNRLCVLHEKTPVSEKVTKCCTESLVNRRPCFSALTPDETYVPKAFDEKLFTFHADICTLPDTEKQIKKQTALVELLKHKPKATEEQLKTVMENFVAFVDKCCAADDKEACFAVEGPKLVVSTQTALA

Kd dimer: 4.5 mM
Substance: Bovine serum albumin, fatty-acid-free (FAF-BSA)
